“Also recorded” adds a separate entry of the source.
B1: shRNA-2: small hairpin RNA for mouse Tac2 gene (SEQ ID NO: 11, 12), expressed from AAV5-H1-shRNA-CMV-zsGreen (nucleic acid)
chain 1: CCGCCTCAACCCCATAGCAATTAGCTTCCTGTCACTAATTGCTATGGGGTTGAGGCTTTTTT
chain 2: AAAAAAGCCTCAACCCCATAGCAATTAGTGACAGGAAGCTAATTGCTATGGGGTTGAGGCGG
B2: shRNA-1: small hairpin RNA for mouse Tac2 gene (SEQ ID NO: 9, 10), expressed from AAV5-H1-shRNA-CMV-zsGreen (nucleic acid)
chain 1: CCGACGTGGTTGAAGAGAACACCGCTTCCTGTCACGGTGTTCTCTTCAACCACGTCTTTTTT
chain 2: AAAAAAGACGTGGTTGAAGAGAACACCGTGACAGGAAGCGGTGTTCTCTTCAACCACGTCGG

Columns and labels:
Tac2 [1] = experiment: Looming disk assay, Tac2 shRNA knockdown; type: in vivo, mouse; details: SIS mice
Excerpt: (§1) Small hairpin RNA (shRNA) for the mouse Tac2 gene (NM_009312.2) were designed using the online designing tool siDirect 2.0 (http://sidirect2.mai.jp/) (Naito et al., 2009; incorporated by reference in its entirety).
(§2) 8-16 week old mice were anesthetized with isoflurane and mounted in a stereotaxic apparatus (Kopf Instruments). Anesthesia was maintained throughout surgery at 1-1.5% isoflurane. The skull was exposed and small burr holes produced dorsal to each injection site using a stereotaxic mounted drill. Virus was backfilled into pulled fine glass capillaries (˜50 μm diameter at tip) and pressure injections of 300 nl were made bilaterally into either the dBNSTa (AP +0.25, ML ±0.85, DV −4.1), DMH (AP −1.3, ML±0.35, DV −5.6), or CeA (AP −1.4, ML ±2.6, DV −4.73) at a rate of 30nl per minute using a nanoliter injector (Nanoliter 2000, World Precision Instruments) controlled by an ultra microsyringe pump (Micro4, World Precision Instruments). Capillaries remained in place for 5 minutes following injections to allow for full diffusion of virus and to reduce backflow up the injection tract. Skin above the skull was then drawn together and sealed with GLUture (Zoetis). For bilateral cannula implantations, single or double guide cannulas (custom, Plastics One) aimed 0.5 mm above each region were implanted and held in place with dental cement (Parkell). Compatible dummy cannulas with a 0.5 mm protrusion at the tip were inserted to prevent cannula clogging. Directly following surgery, mice were given a subcutaneous injection of ketoprofen (2 mg/kg) and supplied with drinking water containing 400 mg/L sulphamethoxazole and 200 mg/L ibuprofen and monitored for 7 days. Dummies were replaced every 2-3 days to keep cannula tracts clean. All injections were subsequently verified histologically.
Freezing behavior to presentation of an overhead looming disk proceeded as previously described (Kunwar et al., 2015; Yilmaz and Meister, 2013; incorporated by reference in their entirety). Briefly, mice were transported to a novel behavioral testing room. […] Behavior was recorded using a video recorder attached to a laptop equipped with video capture software (Corel VideoStudio Pro). Acute freezing behavior to the looming disk (“during”) as well as in the 30 seconds following the last disk (“post”) were scored manually (Behavior Annotator, MATLAB) by an observer blind to environmental conditions.
To further investigate a role for local Tac2 release in mediating different effects of SIS, we asked next whether Tac2 synthesis played a role in each of the three brain regions studied, via targeted shRNAi-mediated knockdown of Tac2. […] Injections were histologically verified by zsGreen fluorescence. […]

Tac2 [2] = experiment: Tone fear test, Tac2 shRNA knockdown; type: in vivo, mouse; details: SIS mice
Excerpt: as §1, §2
The protocol for tone trace fear conditioning was performed as previously described (Cushman et al., 2014; incorporated by reference in its entirety) using fear conditioning boxes previously described in detail (Haubensak et al., 2010; Kunwar et al., 2015; incorporated by reference in their entirety). Briefly, mice were transported in squads of four on a white cart to a novel behavioral testing room containing 4 sound-attenuating fear-conditioning chambers (Med Associates). This “training context” was comprised of flat grid flooring (wired to a shock generator and scrambler for footshock delivery, Med Associates), houselights, and the presence of an internal fan for background noise. Chambers were sprayed with 70% Simple Green solution on the underlying chamber pan to generate a unique contextual scent and chambers were cleaned with 70% EtOH between squads. […]

| Molecule | acute (during) freezing to looming disk (Tac2 [1]; AAV shRNA in dBNSTa) | acute (during) freezing to conditioned tone (Tac2 [2]; AAV shRNA in dBNSTa) | freezing to looming disk (acute, during stimulus) (Tac2 [1]; AAV shRNA in CeA) | persistent (post) freezing to looming disk (Tac2 [1]; AAV shRNA in dBNSTa) | freezing to conditioned tone (Tac2 [2]; AAV shRNA in CeA) | persistent (post) freezing to conditioned tone (Tac2 [2]; AAV shRNA in dBNSTa) |
| --- | --- | --- | --- | --- | --- | --- |
| B1 | additionally reduced; also recorded: significantly reduced | additionally reduced; also recorded: significantly reduced | – | – | – | – |
| B2 | had no effect | had no effect | blocked | blocked; also recorded: strongly reduced | blocked | blocked; also recorded: strongly reduced |

From patent US12083109B2, “Neurokinin antagonists and uses thereof” (California Institute of Technology, priority 2017, dated 2024)
